From the MegaScale stability set (Tsuboyama et al. 2023)

B1: EHEE_rd2_1257 (parent)
chain: EEERTFTNEEEARKAKKEAEKRGLRVTVTKDGTTWRVRIG

Variants of: B1
Test: folding stability dG (cDNA display proteolysis); higher = more stable
Settings: PBS, room temperature

Variant	folding stability dG [kcal/mol]
EEERTFTNEEEARKAKKEALKRGLRVTVTKDGTTWRVRIG [E20L]	1.69
EEERTFTNEEEARKAKKEAMKRGLRVTVTKDGTTWRVRIG [E20M]	1.66
EEERTFTNEEEARKAKKEAHKRGLRVTVTKDGTTWRVRIG [E20H]	0.935
EEERTFTNEEEARKAKKEAGKRGLRVTVTKDGTTWRVRIG [E20G]	0.5
EEERTFTNEEEARKAKKEATKRGLRVTVTKDGTTWRVRIG [E20T]	1.11
EEERTFTNEEEARKAKKEAYKRGLRVTVTKDGTTWRVRIG [E20Y]	1.03
EEERTFTNEEEARKAKKEAKKRGLRVTVTKDGTTWRVRIG [E20K]	1.14
EEERTFTNEEEARKAKKEAAKRGLRVTVTKDGTTWRVRIG [E20A]	1.2
EEERTFTNEEEARKAKKEAIKRGLRVTVTKDGTTWRVRIG [E20I]	1.63
EEERTFTNEEEARKAKKEAWKRGLRVTVTKDGTTWRVRIG [E20W]	1.27
EEERTFTNEEEARKAKKEAQKRGLRVTVTKDGTTWRVRIG [E20Q]	1.67
EEERTFTNEEEARKAKKEASKRGLRVTVTKDGTTWRVRIG [E20S]	0.861
EEERTFTNEEEARKAKKEARKRGLRVTVTKDGTTWRVRIG [E20R]	1.11
EEERTFTNEEEARKAKKEANKRGLRVTVTKDGTTWRVRIG [E20N]	0.952
EEERTFTNEEEARKAKKEAFKRGLRVTVTKDGTTWRVRIG [E20F]	1.02
EEERTFTNEEEARKAKKEADKRGLRVTVTKDGTTWRVRIG [E20D]	0.837
EEERTFTNEEEARKAKKEACKRGLRVTVTKDGTTWRVRIG [E20C]	1.45
EEERTFTNEEEARKAKKEAVKRGLRVTVTKDGTTWRVRIG [E20V]	1.39
EEERTFTNEEEARKAKKEYEKRGLRVTVTKDGTTWRVRIG [A19Y]	2.37
EEERTFTNEEEARKAKKECEKRGLRVTVTKDGTTWRVRIG [A19C]	2.03
EEERTFTNEEEARKAKKETEKRGLRVTVTKDGTTWRVRIG [A19T]	0.176
EEERTFTNEEEARKAKKELEKRGLRVTVTKDGTTWRVRIG [A19L]	2.46
EEERTFTNEEEARKAKKEKEKRGLRVTVTKDGTTWRVRIG [A19K]	0.052
EEERTFTNEEEARKAKKEGEKRGLRVTVTKDGTTWRVRIG [A19G]	1.06
EEERTFTNEEEARKAKKEVEKRGLRVTVTKDGTTWRVRIG [A19V]	0.703

Variant	folding stability dG [kcal/mol]
EEERTFTNEEEARKAKKEQEKRGLRVTVTKDGTTWRVRIG [A19Q]	0.398
EEERTFTNEEEARKAKKENEKRGLRVTVTKDGTTWRVRIG [A19N]	0.597
EEERTFTNEEEARKAKKEDEKRGLRVTVTKDGTTWRVRIG [A19D]	-0.295
EEERTFTNEEEARKAKKESEKRGLRVTVTKDGTTWRVRIG [A19S]	0.779
EEERTFTNEEEARKAKKEMEKRGLRVTVTKDGTTWRVRIG [A19M]	2.11
EEERTFTNEEEARKAKKEEEKRGLRVTVTKDGTTWRVRIG [A19E]	0.159
EEERTFTNEEEARKAKKEHEKRGLRVTVTKDGTTWRVRIG [A19H]	1.06
EEERTFTNEEEARKAKKEIEKRGLRVTVTKDGTTWRVRIG [A19I]	1.53
EEERTFTNEEEARKAKKEFEKRGLRVTVTKDGTTWRVRIG [A19F]	2.11
EEERTFTNEEEARKAKKEWEKRGLRVTVTKDGTTWRVRIG [A19W]	2.02
EEERTFTNEEEARKAKKEAEVRGLRVTVTKDGTTWRVRIG [K21V]	1.82
EEERTFTNEEEARKAKKEAENRGLRVTVTKDGTTWRVRIG [K21N]	2.06
EEERTFTNEEEARKAKKEAETRGLRVTVTKDGTTWRVRIG [K21T]	1.88
EEERTFTNEEEARKAKKEAEFRGLRVTVTKDGTTWRVRIG [K21F]	1.89
EEERTFTNEEEARKAKKEAEARGLRVTVTKDGTTWRVRIG [K21A]	2.53
EEERTFTNEEEARKAKKEAEIRGLRVTVTKDGTTWRVRIG [K21I]	1.93
EEERTFTNEEEARKAKKEAERRGLRVTVTKDGTTWRVRIG [K21R]	2.19
EEERTFTNEEEARKAKKEAEDRGLRVTVTKDGTTWRVRIG [K21D]	2.25
EEERTFTNEEEARKAKKEAEERGLRVTVTKDGTTWRVRIG [K21E]	2.25
EEERTFTNEEEARKAKKEAEHRGLRVTVTKDGTTWRVRIG [K21H]	1.82
EEERTFTNEEEARKAKKEAEGRGLRVTVTKDGTTWRVRIG [K21G]	2.11
EEERTFTNEEEARKAKKEAESRGLRVTVTKDGTTWRVRIG [K21S]	2.38
EEERTFTNEEEARKAKKEAELRGLRVTVTKDGTTWRVRIG [K21L]	2.31
EEERTFTNEEEARKAKKEAEQRGLRVTVTKDGTTWRVRIG [K21Q]	2.17
EEERTFTNEEEARKAKKEAEMRGLRVTVTKDGTTWRVRIG [K21M]	2.45

Variant	folding stability dG [kcal/mol]
EEERTFTNEEEARKAKKEAEYRGLRVTVTKDGTTWRVRIG [K21Y]	1.82
EEERTFTNEEEARKAKKEAEWRGLRVTVTKDGTTWRVRIG [K21W]	1.71
EEERTFTNEEEARKAKEEAEKRGLRVTVTKDGTTWRVRIG [K17E]	2.7
EEERTFTNEEEARKAKHEAEKRGLRVTVTKDGTTWRVRIG [K17H]	2.24
EEERTFTNEEEARKAKYEAEKRGLRVTVTKDGTTWRVRIG [K17Y]	2.44
EEERTFTNEEEARKAKDEAEKRGLRVTVTKDGTTWRVRIG [K17D]	2.44
EEERTFTNEEEARKAKAEAEKRGLRVTVTKDGTTWRVRIG [K17A]	2.47
EEERTFTNEEEARKAKSEAEKRGLRVTVTKDGTTWRVRIG [K17S]	2.19
EEERTFTNEEEARKAKWEAEKRGLRVTVTKDGTTWRVRIG [K17W]	2.39
EEERTFTNEEEARKAKTEAEKRGLRVTVTKDGTTWRVRIG [K17T]	2.11
EEERTFTNEEEARKAKVEAEKRGLRVTVTKDGTTWRVRIG [K17V]	2.27
EEERTFTNEEEARKAKLEAEKRGLRVTVTKDGTTWRVRIG [K17L]	2.45
EEERTFTNEEEARKAKNEAEKRGLRVTVTKDGTTWRVRIG [K17N]	2.15
EEERTFTNEEEARKAKMEAEKRGLRVTVTKDGTTWRVRIG [K17M]	2.48
EEERTFTNEEEARKAKREAEKRGLRVTVTKDGTTWRVRIG [K17R]	2.3
EEERTFTNEEEARKAKQEAEKRGLRVTVTKDGTTWRVRIG [K17Q]	2.36
EEERTFTNEEEARKAKFEAEKRGLRVTVTKDGTTWRVRIG [K17F]	2.36
EEERTFTNEEEARKAKIEAEKRGLRVTVTKDGTTWRVRIG [K17I]	2.5
EEERTFTNEEEARKAKGEAEKRGLRVTVTKDGTTWRVRIG [K17G]	1.78
EEERTFTNEEEARKAKKEAEKRALRVTVTKDGTTWRVRIG [G23A]	0.188
EEERTFTNEEEARKAKKEAEKRCLRVTVTKDGTTWRVRIG [G23C]	1.58
EEERTFTNEEEARKAKKEAEKRDLRVTVTKDGTTWRVRIG [G23D]	-0.065
EEERTFTNEEEARKAKKEAEKRELRVTVTKDGTTWRVRIG [G23E]	-0.609
EEERTFTNEEEARKAIKEAEKRGLRVTVTKDGTTWRVRIG [K16I]	2.99
EEERTFTNEEEARKAEKEAEKRGLRVTVTKDGTTWRVRIG [K16E]	2.31

Variant	folding stability dG [kcal/mol]
EEERTFTNEEEARKANKEAEKRGLRVTVTKDGTTWRVRIG [K16N]	-0.159
EEERTFTNEEEARKASKEAEKRGLRVTVTKDGTTWRVRIG [K16S]	1.99
EEERTFTNEEEARKARKEAEKRGLRVTVTKDGTTWRVRIG [K16R]	1.75
EEERTFTNEEEARKAQKEAEKRGLRVTVTKDGTTWRVRIG [K16Q]	2.91
EEERTFTNEEEARKAVKEAEKRGLRVTVTKDGTTWRVRIG [K16V]	3
EEERTFTNEEEARKAFKEAEKRGLRVTVTKDGTTWRVRIG [K16F]	2.35
EEERTFTNEEEARKAYKEAEKRGLRVTVTKDGTTWRVRIG [K16Y]	2.2
EEERTFTNEEEARKACKEAEKRGLRVTVTKDGTTWRVRIG [K16C]	2.25
EEERTFTNEEEARKATKEAEKRGLRVTVTKDGTTWRVRIG [K16T]	1.89
EEERTFTNEEEARKALKEAEKRGLRVTVTKDGTTWRVRIG [K16L]	1.95
EEERTFTNEEEARKAMKEAEKRGLRVTVTKDGTTWRVRIG [K16M]	2.66
EEERTFTNEEEARKAHKEAEKRGLRVTVTKDGTTWRVRIG [K16H]	1.53
EEERTFTNEEEARKAGKEAEKRGLRVTVTKDGTTWRVRIG [K16G]	2.33
EEERTFTNEEEARKAWKEAEKRGLRVTVTKDGTTWRVRIG [K16W]	2.37
EEERTFTNEEEARKAKKEAEKFGLRVTVTKDGTTWRVRIG [R22F]	1.62
EEERTFTNEEEARKAKKEAEKGGLRVTVTKDGTTWRVRIG [R22G]	1.02
EEERTFTNEEEARKAKKEAEKMGLRVTVTKDGTTWRVRIG [R22M]	2.18
EEERTFTNEEEARKAKKEAEKHGLRVTVTKDGTTWRVRIG [R22H]	1.72
EEERTFTNEEEARKAKKEAEKNGLRVTVTKDGTTWRVRIG [R22N]	1.72
EEERTFTNEEEARKAKKEAEKWGLRVTVTKDGTTWRVRIG [R22W]	1.72
EEERTFTNEEEARKAKKEAEKSGLRVTVTKDGTTWRVRIG [R22S]	1.44
EEERTFTNEEEARKAKKEAEKVGLRVTVTKDGTTWRVRIG [R22V]	1.45
EEERTFTNEEEARKAKKEAEKDGLRVTVTKDGTTWRVRIG [R22D]	1.09
EEERTFTNEEEARKAKKEAEKKGLRVTVTKDGTTWRVRIG [R22K]	1.8
EEERTFTNEEEARKAKKEAEKPGLRVTVTKDGTTWRVRIG [R22P]	-0.245

Variant	folding stability dG [kcal/mol]
EEERTFTNEEEARKAKKEAEKQGLRVTVTKDGTTWRVRIG [R22Q]	1.88
EEERTFTNEEEARKAKKEAEKCGLRVTVTKDGTTWRVRIG [R22C]	1.55
EEERTFTNEEEARKAKKEAEKAGLRVTVTKDGTTWRVRIG [R22A]	1.91
EEERTFTNEEEARKAKKEAEKTGLRVTVTKDGTTWRVRIG [R22T]	1.06
EEERTFTNEEEARKAKKEAEKEGLRVTVTKDGTTWRVRIG [R22E]	1.23
EEERTFTNEEEARKAKKEAEKLGLRVTVTKDGTTWRVRIG [R22L]	2.19
EEERTFTNEEEARKAKKEAEKIGLRVTVTKDGTTWRVRIG [R22I]	1.59
EEERTFTNEEEARKAKKEAEKYGLRVTVTKDGTTWRVRIG [R22Y]	1.69
EEERTFTNEEEARKAKKLAEKRGLRVTVTKDGTTWRVRIG [E18L]	1.64
EEERTFTNEEEARKAKKYAEKRGLRVTVTKDGTTWRVRIG [E18Y]	1.59
EEERTFTNEEEARKAKKHAEKRGLRVTVTKDGTTWRVRIG [E18H]	1.43
EEERTFTNEEEARKAKKVAEKRGLRVTVTKDGTTWRVRIG [E18V]	1.3
EEERTFTNEEEARKAKKAAEKRGLRVTVTKDGTTWRVRIG [E18A]	1.84
EEERTFTNEEEARKAKKGAEKRGLRVTVTKDGTTWRVRIG [E18G]	0.934
EEERTFTNEEEARKAKKIAEKRGLRVTVTKDGTTWRVRIG [E18I]	1.48
EEERTFTNEEEARKAKKKAEKRGLRVTVTKDGTTWRVRIG [E18K]	1.11
EEERTFTNEEEARKAKKTAEKRGLRVTVTKDGTTWRVRIG [E18T]	1.33
EEERTFTNEEEARKAKKRAEKRGLRVTVTKDGTTWRVRIG [E18R]	1.22
EEERTFTNEEEARKAKKDAEKRGLRVTVTKDGTTWRVRIG [E18D]	1.91
EEERTFTNEEEARKAKKQAEKRGLRVTVTKDGTTWRVRIG [E18Q]	1.64
EEERTFTNEEEARKAKKFAEKRGLRVTVTKDGTTWRVRIG [E18F]	1.56
EEERTFTNEEEARKAKKMAEKRGLRVTVTKDGTTWRVRIG [E18M]	1.72
EEERTFTNEEEARKAKKWAEKRGLRVTVTKDGTTWRVRIG [E18W]	2.24
EEERTFTNEEEARKAKKSAEKRGLRVTVTKDGTTWRVRIG [E18S]	1.4
EEERTFTNEEEARKAKKNAEKRGLRVTVTKDGTTWRVRIG [E18N]	1.48
